Data from the supplement of paper PMC10567573.
± gives the standard deviation.

Experiment: protein stability index of a GFP-peptide fusion (GPS, HEK-293T) (PSI 1-6); higher = more stable
Conditions: c terminus: a fixed tail appended
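Further: 24-mer peptide tiles fused after GFP, lentivirally expressed, FACS-sorted into six equal bins by GFP/DsRed ratio, decoded by Illumina sequencing, PSI is the read-weighted mean bin number.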

Sequence | protein stability index (treatment: DMSO) | protein stability index (treatment: MLN4924 1 uM, 8 h)
RPLQVNTADHRIYSYVVSRPQPRG [FAF2] | 3.27 ± 0.43 | 3.49 ± 0.2
LCKDCQVIDGRNVTVTDVDIVFSK [TPPP] | 2.89 ± 0.28 | 3.3 ± 0.47
CCEVETIRRAYPDANLLNDRVLRA [CCND1] | 2.86 ± 0.42 | 2.95 ± 0.23
PTQKALYNDVMQENYETVISLALF [ZNF75A] | 2.57 ± 0.45 | 2.47 ± 0.37
EDLATAYNNRGQIKYFRVDFYEAM [TTC32] | 2.21 ± 0.17 | 2.23 ± 0.32
SRARSASSPRGMVRVCDLLLKKKP [ANKRD17] | 3.61 ± 0.39 | 3.51 ± 0.4
PCPLGEPKTQACSGSESPSDSGKD [MYCL] | 5.41 ± 0.24 | 5.41 ± 0.17
NGVLLCFYSQEWYARQHCPLKNPT [SOAT1] | 2.81 ± 0.31 | 2.6 ± 0.57
LEEEFDSDSGLSLDSSHSPSSLSS [NFE2L1] | 5.251 ± 0.052 | 5.22 ± 0.12
EAEEEKGEKEEEDKDDEEKPKIED [HSP90AB1] | 5.55 ± 0.35 | 5.6 ± 0.38
HNRKVLTIFSASNYYEVGSNRGAY [PPEF2] | 2.44 ± 0.28 | 2.46 ± 0.24
ASPMSADRVVAFMDHIRIFQEQVE [NR2F2] | 2.8 ± 0.44 | 3.1 ± 0.29
LKCDLQERLLCPSLLAGTADGSLR [M1AP] | 2.55 ± 0.32 | 2.5 ± 0.24
TDAHVWNKSVTLYTVKDKATGEVL [NLN] | 3.46 ± 0.6 | 3.36 ± 0.55
EEVPEGMEEAAVASVVLPARELQE [BCL2L13] | 5.59 ± 0.2 | 5.41 ± 0.26
FDVAFIGSIMTVWLSTAPTEPLTH [CARM1] | 3.24 ± 0.64 | 2.88 ± 0.53
SKLLLSGTADGADLRTVDPETQAR [ANKRD17] | 5.08 ± 0.35 | 5.13 ± 0.26
RGVDVSLQGKDAWLPLHYAAWQGH [RIPK4] | 2.58 ± 0.42 | 2.45 ± 0.29
DNPPTFSQVSYFTYIPENNARGAS [PCDHGA10] | 3.44 ± 0.46 | 3.49 ± 0.49
TGWARKGLGNTWPGASGSAQSLDR [ATP23] | 4.17 ± 0.26 | 4.09 ± 0.16
SVLLGASNADQLMENIGAIQVLPK [KCNAB2] | 3.58 ± 0.095 | 3.6 ± 0.24
RIKEVEHMTRHLEESEKAMQERVQ [LRRC45] | 5 ± 0.22 | 4.99 ± 0.21
FLTAPLLEFLLALYFLFADAMQLN [CMTM3] | 2.94 ± 0.29 | 3.17 ± 0.3

Sequence | protein stability index (treatment: DMSO) | protein stability index (treatment: MLN4924 1 uM, 8 h)
TTALLHYQLPQMPDVVVRSFMTWL [MED27] | 2.59 ± 0.32 | 2.62 ± 0.3
SVAGWSLFSLNVISLTCVSVAFAV [SLC19A2] | 2.92 ± 0.15 | 3.21 ± 0.27
LTKFLEEHPGGEEVLREQAGGDAT [CYB5A] | 5.44 ± 0.24 | 5.44 ± 0.26
PSRAPPSTQEPQSPREGEELKPED [GNAS] | 5.5 ± 0.33 | 5.5 ± 0.32
REVEQWFATQTEELNKQVVSSSEQ [KRT33B] | 4.98 ± 0.23 | 4.87 ± 0.17
ESYFTTRTYGEPESAGPSRAVRQS [EMD] | 4.62 ± 0.26 | 4.57 ± 0.18
NFCEPQDYRPMNHEAFKDELKTFR [CDC25B] | 4.04 ± 0.085 | 4.15 ± 0.25
FQARLSGNNLHNASIPEHLAYGSV [POMT2] | 2.63 ± 0.21 | 2.95 ± 0.29
HRQETVDCLKKFNARRKLKGAILT [CAMK2D] | 2.69 ± 0.52 | 2.71 ± 0.22
ERDTLSIRESRLFGAVVRWAEAEC [BTBD1] | 3.13 ± 0.21 | 3.12 ± 0.34
SYQKPKEVVVAESELQKELKKVKT [DPCD] | 4.95 ± 0.36 | 5.25 ± 0.31
QPVVDTFDIRILMAKSVKYTVNFL [CARM1] | 2.79 ± 0.7 | 2.62 ± 0.56
FHYIPGTDILDLENQRENLEQPFL [PLEKHN1] | 2.92 ± 0.58 | 3.09 ± 0.16
AEEAEILHSACGLSKDHQEVETEG [TOR1AIP2] | 5.45 ± 0.33 | 5.72 ± 0.24
ISSGVVSIWAQNQVENWSAFAPDF [RBBP5] | 2.44 ± 0.3 | 2.4 ± 0.25
NSFRLLFDVVVILTCSLSFLLCAR [MCOLN1] | 3.21 ± 0.17 | 3.24 ± 0.24
LVNDDDEEADDTRYTQGTGGDEVD [ZC3H15] | 5.43 ± 0.31 | 5.67 ± 0.23
SSCVKILLDHNANIDIQNGFLLRY [ASB7] | 2.47 ± 0.43 | 2.5 ± 0.24
SSFFQQFFHCYCPVGFGRRTDPNG [CRY1] | 2.42 ± 0.52 | 2.11 ± 0.27
RLHNLYSTPRCAQQAALPRLSRRM [CBY2] | 2.28 ± 0.31 | 2.55 ± 0.4
DTLADDVPGHQTPSDLDQFSDSSL [LURAP1L] | 5.44 ± 0.2 | 5.366 ± 0.053
YEDIRRENPVGTFHCSMSPGNLEK [PTPN9] | 4.58 ± 0.23 | 4.73 ± 0.13
ETILHFFVQILLALHHVHTHLILH [NEK8] | 3.19 ± 0.44 | 3.31 ± 0.29

Sequence | protein stability index (treatment: DMSO) | protein stability index (treatment: MLN4924 1 uM, 8 h)
YISRKYFATRPGAIETAMEDLKGH [TPRG1] | 2.73 ± 0.41 | 2.81 ± 0.43
EVSLDSLDLRVKGILSSQAEGLAN [EHMT1] | 4.18 ± 0.19 | 4.05 ± 0.42
ATSLFVELDEEEVKAATTEPTEVE [BCL2L13] | 5.48 ± 0.4 | 5.62 ± 0.12
FVEDSFDPNINPTIGASFMTKTVQ [RAB22A] | 2.97 ± 0.27 | 3.34 ± 0.46
GYFFPTSARDCKFTGNFFYNYMMG [DHCR7] | 2.36 ± 0.38 | 2.36 ± 0.21
SAVQYFQFYGYLSQQQNMMQDYVR [CARM1] | 2.6 ± 0.72 | 3.35 ± 0.64
YLGLVRTHINAVVAKIQAKIPGAK [RTN1] | 2.35 ± 0.29 | 2.06 ± 0.54
GPSRSRHRRRSRERGPYRTRKHAH [CLK3] | 4.92 ± 0.24 | 4.8 ± 0.38
VCMTFMKQIAGGDVTAKNIWLAES [INTS3] | 2.53 ± 0.62 | 2.92 ± 0.6
NTGYRLQNNENNISCVERGWSTPP [CFHR2] | 3.67 ± 0.19 | 3.66 ± 0.22
LGERRAEPHSLLHLSRLCVRHNLG [SPSB2] | 3.35 ± 0.22 | 3.3 ± 0.23
VWYYCTLTIRESILINNGSRIKGW [TMEM120A] | 3.08 ± 0.61 | 2.96 ± 0.36
PMLETASKLLLSGTADGADLRTVD [ANKRD17] | 4.68 ± 0.077 | 4.67 ± 0.22
IKELYENFCKHNGSKNVFSTFRTP [ATL3] | 2.24 ± 0.36 | 2.29 ± 0.39
VVTRVVTGVYPRCLHASQWPVCAA [BRF1] | 2.54 ± 0.51 | 2.75 ± 0.23
LPYQHFSAHFTSGPLVPRLAGMAN [TBX5] | 2.7 ± 0.27 | 2.56 ± 0.11
PPYLPLAVPEDLADRLVRVHGDPA [FUT8] | 4.22 ± 0.12 | 4.31 ± 0.28
GGLQHRVTAKTAPDVLRTKPAFIG [PTPRD] | 3.44 ± 0.5 | 3.07 ± 0.34
LQHAVELKPLCGCHSFAAAADGPT [SMAD6] | 3.16 ± 0.21 | 3.17 ± 0.28
KQAEICQLEEKLEIANEDRKHALE [CCDC89] | 5.52 ± 0.28 | 5.49 ± 0.077
SSGPARGIAIVSVLVILISIVIFC [KCNA3] | 2.21 ± 0.21 | 2.21 ± 0.28
SIIECDMNVDFDAPLGYKEPERQV [UFD1] | 4.27 ± 0.22 | 4.31 ± 0.18
ACGGLDNKCSVYPLTFDKNENMAA [GNB5] | 3.69 ± 0.093 | 3.43 ± 0.41

Sequence | protein stability index (treatment: DMSO) | protein stability index (treatment: MLN4924 1 uM, 8 h)
GAGFGGGLGAGFGGGFAGGDGLLV [KRT16] | 2.58 ± 0.82 | 2.46 ± 0.92
MMELGSRSRGASQKKQKLEQKAAG [FATE1] | 4.76 ± 0.19 | 4.87 ± 0.49
RKDFSELRSAGVEQLMYIKEDLII [FAM50A] | 2.24 ± 0.21 | 2.13 ± 0.34
RCFWLGMEGLETAEGSNSESSDDD [SDE2] | 5.22 ± 0.42 | 5.09 ± 0.3
KPHRLGDSEHEPVYRAELVGELNG [PWWP2B] | 5.01 ± 0.13 | 4.5 ± 0.4
VNFMYLQSLLQPKSSSVDSELTSL [SMG5] | 2.21 ± 0.39 | 2.15 ± 0.39
HLEINPDHPIVETLRQKAEADKND [HSP90AB1] | 5.58 ± 0.2 | 5.56 ± 0.1
SQIQGHKEMSKVWNDLRPKLSCLF [SNX8] | 2.2 ± 0.35 | 2.22 ± 0.22
VEASCSVCLEYLKEPVIIECGHNF [TRIM39] | 2.07 ± 0.39 | 2.25 ± 0.21
HDGKPSEGSYRIHVLHHGTGKWYE [USP39] | 2.71 ± 0.2 | 2.88 ± 0.16
LSEEEKEELKAELVQLEDEITTLR [TPD52L1] | 5.03 ± 0.17 | 5.2 ± 0.19
FSPANPESSMEDCLAHLGEKVSQE [BCL2L13] | 5.2 ± 0.38 | 5.39 ± 0.16
KVLGHVNNILISAVLPTAFRVAKK [GDAP1] | 2.83 ± 0.59 | 2.44 ± 1.3
TEAGGVLMDVTGGPFDLMSRRVIA [IMPA1] | 3.22 ± 0.61 | 3.37 ± 0.42
RKSVRYTRQKKNLPDSPLRFDGLP [TRIM15] | 3.59 ± 0.19 | 3.66 ± 0.12
QCAVLIYTSGTTGIPKGVMLSHDN [ACSBG2] | 2.65 ± 0.51 | 2.58 ± 0.72
SVEEQLSLISGCPNIQEAVEGAMH [CRYL1] | 4.68 ± 0.17 | 4.64 ± 0.15
VETAFERLQQELEQQRCLLLARLR [TRIM15] | 2.81 ± 0.33 | 2.86 ± 0.3
CPQCGKCFARKSQLTGHQRIHSGE [ZNF449] | 5.1 ± 0.3 | 5.16 ± 0.087
AIPTKKSLPSPSSSGHQNRRFSSE [FBF1] | 4.82 ± 0.27 | 4.9 ± 0.15
